Assay results reported in patent US20110311550A1 (Scripps Research, published 2011).
Changes are numbered by the printed parent chain.

B1: Fab P6 (Fab, V domains shown)
VH: EVQLLESGGGVVQPGKSLTVSCAASGFTFSTFTMHWVRQAPGKWLEWVAVISHDGGTEHYADSVTGRFTISRDNSKNTLHMQMNSLRLEDTAVYFCARGGPAYYLYNDVLTGYYNVVGDFWGQGTLVTVSS
VL: ELIQSPGTLFLSSGERATLSCRASQSVSSSNLAWFQHKSGRAPRLLIYGASNRAPDIPDRFSGSGSGTDFTISISRLEPEDFAVYYCQRYGDSPPITFGQGTRLEIKR
B2: Fab Q1 (Fab, V domains shown)
VH: VQLLEQSGAEVRKPGASVKVSCKASGYTFTNNGLNWVRQAPGQGLEWMGWISPYNGDTDFAHKFQGRISMTTDTSTNTAYMELRSLRSDDTAVYYCARDRNSAGGTWLFRDPPPGSTFFDSWGQGSLVTVSS
VL: not shown
B3: Fab Q2 (Fab, V domains shown)
VH: B2 VH with R12K
VL: ELTQSPASLSLSPGGSATLACRASRGVNSNLAWYHQKPGQAPRLLIYSASTRATGIPGRFSGSGFGTEFTLTINNLQSDDFGVYYCQQYDDTPQITFGQGTRLDIKR
B4: Fab R1 (Fab, V domains shown)
VH: VQLLEQSGAEVKKPGASVKVSCKASGYTFSIYGVAWVRQAPGQGLEWMGWISPQNGDTHSPQKFQGRLTMTTDTSTSTAYMELRSLRSDDTAVYFCARDYGVNFGGGSEHNLDYWGRGTRVTVSS
VL: ELTQSPLSLPVTPGEPASISCRSSYSLLHINGYKYLDWYLQRPGQSPQLLIYLGSNRAPGVPDRFSGSGSGTSFTLKISRVEAEDVGVYYCMQSLQAPWTFGQGTKVEMKR
B5: Fab S1 (Fab, V domains shown)
VH: VQLLEQSGAEVKKPGTSVKVSCTASGYIFTSFGISWVRQAPGQGLEWMGRIDTYNGKTNYAQKLQGRVTMTTDTYTSTAYMELRSLTSDDTAVYYCARDDCRSSTCYLAQHNWQAYYHDSWGQGTLVTVSS
VL: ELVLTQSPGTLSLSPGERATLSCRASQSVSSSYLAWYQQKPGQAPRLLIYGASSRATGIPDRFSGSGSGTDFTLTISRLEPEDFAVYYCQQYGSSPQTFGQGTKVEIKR
B6: Fab T1 (Fab, V domains shown)
VH: EVQLLESGGGLVQPGGSLRLSCAASGFTFSRFWMHWVRQAPGKGLVWVARINSDGSSTTYADSVKGRFTISRDNAKNTLYLQMNSLRDEDTAVYFCARGGDSSSPYYYPMDVWGQGTTVAVSS
VL: not shown
B7: Fab U1 (Fab, V domains shown)
VH: VQLLEQSGPEVKRPGTSVKMSCKISGGASITQAMSWVRQAPGQGLEWMGGITPIFGTVNYAQKILGRVTITADEDTVSLELSSLKSEDTAVYYCAREVNLKTWNLAHPNVFDVWGQGTMLTVSS
VL: ELTQSPSSLSASVGDRVTITCRASQSISSFLNWYQQKPGKAPKLLIYAASSLQSGVPPRFSGSGSGTDFTLTISSLQPEDFATYYCQQSYSTPRTFGQGTKLEIKR
B8: Fab B4 (Fab, V domains shown)
VH: VQLLEQSGAEVKKPGSSVKVSCRASGSPFSSYTITWVRQAPGQGLEWMGGIILMTGKANYAQKFQGRVTITADRSTTTAYMEMSSPTSDDTAIYYCARDPYVYAGDDVWSLSRWGQGTLVIVSP
VL: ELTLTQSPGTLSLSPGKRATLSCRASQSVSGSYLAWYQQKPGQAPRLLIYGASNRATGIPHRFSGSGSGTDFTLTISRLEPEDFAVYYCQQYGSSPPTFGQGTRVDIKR
B9: Fab B5 (Fab, V domains shown)
VH: EVQLLESGAEVKKPGSSVKVSCRASGSPYSSYTITWVRQAPGQGLEWMGGIILMTGKANYAQKFQGRVTITADRATATAYMEMSSLTSDDTAIYYCARDPYVYAGDDVWSLSRWGQGTPVIVSS
VL: ELTQSPLSLPVIIGQPASISCSSSESLVDSDGNTYLHWFQQRPGQSPRRLIYKVSNRDAGVPDRFSGSGSGTDFTLKISRVEAEDVAVYYCMQATHWPPITFGPGTRLEVKR
B10: Fab B6a (Fab, V domains shown)
VH: B9 VH with E1V, V2Q, Q3L, L5E, E6Q, I121T
VL: LTQSPGTLSLSPGERATLSCRASQSVASNYVAWYQQKPGQAPRLLIYGTSYRATGIPGRFSGSGSGTDFTLTISGLEPEDFAVYYCQQYGSSPQTFGQGTKVEIKR
B11: Fab B6b (Fab, V domains shown)
VH: B9 VH with E1V, V2Q, Q3L, L5E, E6Q, I121T
VL: ELTQSPGTLSLSPGERATLSCRASQSVSRGNLAWYQQKRGQPPRLLIYGASYRATGIPDRFSGSGSGTDFTLTITKLEPEDFAVYYCQQYGHSLAFGQGTKVEIKG
B12: Fab B6c (Fab, V domains shown)
VH: B9 VH with E1V, V2Q, Q3L, L5E, E6Q, I121T
VL: not shown
B13: Fab E2 (antibody clone, not the glycoprotein) (Fab, V domains shown)
VH: VGLLEQSGAELKKPGSSVKVSCKPSDGTFRAYTLSWVRQAPGQTLEWLGRIMPTVGITNYAQKFQGRVTISADMSTATAYMQLSSLRPDDTAIYYCAKGPYVGLGEGFSEWGQGTLVTVSS
VL: ELTQSPLSLPVTLGQPASISCRSSQSLVYSDGNTYLIWFQQRPGQSPRRLIYNVSNRDSGVPDRFSGSGSGTDFTLKISRVEAEDLGVYYCMQGAHWPPTFGQGTRLEIKG
B14: Fab E3 (Fab, V domains shown)
VH: B13 VH with T44A, L48M, Q62R, Q82E, P88S
VL: ELVLTQSPLSLPVTLGQPASISCRSTQSLVYSDGNTYLNWFHQRPGQPPRRLIYKVSNRDSGVPERFSGSGSGTDFALKISRVEADDVGIYYCMQGAHWPPTFGGGTKVEISR
B15: Fab J5 (Fab, V domains shown)
VH: VQLLEQSGAEVKKPGSSVTVSCKASGGTVSSYPITWVRQAPGQGLEWMGGTIPVFGAPKYAPKFQGRVTITADESTSTAYMELRSLRSDDTAMYYCAIVGMRGITLVGGLAMNWLDPWGQGTLVIVSS
VL: ELTQSPGTLSLSPGERATLSCRASQSVSSNYLAWYQQKPGQAPRLLIYGASSRATGIPDRFSGSGSGTDFTLSISRLEPEDFAVYYCQQYGSSPLTFGGGTKVEIKR

biological target: HCV E1E2 antigen, isolate UKN5.15.7 (hepatitis C virus, isolate UKN5.15.7); test: ELISA, Fab on E1E2 antigen

Binder	OD 450 nm [OD 450 nm]
B1	0.08
B2	0.3
B3	0.05
B4	0
B5	0.18
B6	0.07
B7	0.06

biological target: HCV E1E2 antigen, isolate UKN1B12.16 (hepatitis C virus, isolate UKN1B12.16); test: ELISA, Fab on E1E2 antigen

Binder	OD 450 nm [OD 450 nm]
B1	0.26
B2	0.38
B3	0.21
B4	0.03
B5	0.26
B6	0
B7	0.11

biological target: HCV E1E2 antigen, isolate UKN6.5.8 (hepatitis C virus, isolate UKN6.5.8); test: ELISA, Fab on E1E2 antigen

Binder	OD 450 nm [OD 450 nm]
B1	0.12
B2	0.1
B3	0.16
B4	0.05
B5	0.08
B6	0.01
B7	0.06

biological target: HCV E1E2 antigen, isolate UKN4.21.16 (hepatitis C virus, isolate UKN4.21.16); test: ELISA, Fab on E1E2 antigen

Binder	OD 450 nm [OD 450 nm]
B1	0.23
B2	0.85
B3	0.17
B4	0.01
B5	1.12
B6	0.08
B7	0

biological target: HCV E1E2 antigen, isolate CH35 (hepatitis C virus, isolate CH35); test: ELISA, Fab on E1E2 antigen

Binder	OD 450 nm [OD 450 nm]
B1	0.21
B2	0.48
B3	0.19
B4	0.15
B5	0.79
B6	0
B7	0.07

biological target: HCV E1E2 antigen, isolate J6E3 (hepatitis C virus, isolate J6E3, UniProt P26660 192-383; P26660 384-750); test: ELISA, Fab on E1E2 antigen

Binder	OD 450 nm [OD 450 nm]
B1	0.02
B2	0.19
B3	0.25
B4	0
B5	0.07
B6	0
B7	0.08

biological target: HCV E1E2 antigen, isolate UKN3A1.28c (hepatitis C virus, isolate UKN3A1.28c); test: ELISA, Fab on E1E2 antigen

Binder	OD 450 nm [OD 450 nm]
B1	0.37
B2	1.07
B3	0.35
B4	0
B5	0.55
B6	0
B7	0.11

biological target: HCV E1E2 antigen, isolate UKN2B1.1 (hepatitis C virus, isolate UKN2B1.1); test: ELISA, Fab on E1E2 antigen

Binder	OD 450 nm [OD 450 nm]
B1	0.13
B2	0.03
B3	0.15
B4	0.02
B5	0.03
B6	0
B7	0

biological target: HCV E1E2 antigen, isolate OH8 (hepatitis C virus, isolate OH8); test: ELISA, Fab on E1E2 antigen

Binder	OD 450 nm [OD 450 nm]
B1	0.46
B2	0.96
B3	0.43
B4	0.5
B5	1.32
B6	0.15
B7	0.26

biological target: T1, HCV E1E2 antigen, isolate JFH (hepatitis C virus, isolate JFH, UniProt Q99IB8 192-383; Q99IB8 384-750); test: ELISA, Fab on E1E2 antigen
T1 construct: also called JFH-1

Binder	OD 450 nm [OD 450 nm]
B1	0
B2	0.43
B3	0.18
B4	0
B5	0.21
B6	0
B7	0.07

biological target: HCV E1E2 complex, isolate H77 (genotype 1a) (hepatitis C virus genotype 1a, isolate …, UniProt P27958 192-383; P27958 384-746); test: Fab screen after panning on E1E2 (H77)

Binder	binding result
B8	binds
B9	binds
B10	binds
B11	binds
B12	binds
B13	binds
B14	binds
B15	binds
